T1: FcγRIIb extracellular domain with C-terminal His tag (human, UniProt P31994 43-217)
T1 construct: extracellular domain; also called 2b; FcgRIIb
T1 sequence (looked up): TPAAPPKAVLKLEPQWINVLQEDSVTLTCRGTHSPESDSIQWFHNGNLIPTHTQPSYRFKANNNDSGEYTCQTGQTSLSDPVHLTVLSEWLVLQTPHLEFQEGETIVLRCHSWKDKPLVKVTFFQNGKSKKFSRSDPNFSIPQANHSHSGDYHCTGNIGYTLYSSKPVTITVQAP


Legend:
[1] = target: T2, FcγRIIIa extracellular domain with C-terminal His tag (human, UniProt P08637 17-208); assay: SPR; He/Con_3a over He/Con_2b (FcγRIIb)
T2 construct: extracellular domain; also called 3a; FcgRIIIa
T2 sequence (P08637 17-208): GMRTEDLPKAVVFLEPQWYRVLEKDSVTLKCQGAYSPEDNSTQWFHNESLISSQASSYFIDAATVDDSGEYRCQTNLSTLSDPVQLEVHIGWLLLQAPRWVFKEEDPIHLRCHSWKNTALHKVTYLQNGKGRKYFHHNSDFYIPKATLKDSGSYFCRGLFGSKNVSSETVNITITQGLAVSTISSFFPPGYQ

[2] = target: T1, FcγRIIb extracellular domain with …; assay: SPR, relative to GpH7-A5/GpH7-B3/GpL16-k0
[3] = target: T2, FcγRIIIa extracellular domain with …; assay: SPR, relative to GpH7-A5/GpH7-B3/GpL16-k0

He_3a/2b (IIIa/IIb) [1] | He/Con_2b [2] | He/Con_3a [3] | Binder
1.31 ratio | 47.8 control=100 | 62.7 control=100 | GpH7-A5/GpH7-B3 variant E269_13S/GpL16-k0 (antibody, human IgG1, kappa, He Ab: alteration in one H chain only; also called He Ab) heavy 1: not shown heavy 2: not shown light: DIVMTQSPLSLPVTPGEPASISCQASESLVHSNRNTYLHWYLQKPGQSPQLLIYKVSNRFSGVPDRFSGSGSGTDFTLKISRVEAEDVGVYYCSQNTHVPPTFGQGTKVEIERTVAAPSVFIFPPSDEQLKSGTASVVCLLNNFYPREAKVQWKVDNALQSGNSQESVTEQDSKDSTYSLSSTLTLSKADYEKHKVYACEVTHQGLSSPVTKSFNRGEC
3.06 ratio | 39.5 control=100 | 121 control=100 | GpH7-A5/GpH7-B3 variant G236_15Y/GpL16-k0 (antibody, human IgG1, kappa, He Ab: alteration in one H chain only; also called He Ab) heavy 1: not shown heavy 2: not shown light: DIVMTQSPLSLPVTPGEPASISCQASESLVHSNRNTYLHWYLQKPGQSPQLLIYKVSNRFSGVPDRFSGSGSGTDFTLKISRVEAEDVGVYYCSQNTHVPPTFGQGTKVEIERTVAAPSVFIFPPSDEQLKSGTASVVCLLNNFYPREAKVQWKVDNALQSGNSQESVTEQDSKDSTYSLSSTLTLSKADYEKHKVYACEVTHQGLSSPVTKSFNRGEC
2.33 ratio | 58.2 control=100 | 135 control=100 | GpH7-A5/GpH7-B3 variant G236_20W/GpL16-k0 (antibody, human IgG1, kappa, He Ab: alteration in one H chain only; also called He Ab) heavy 1: not shown heavy 2: not shown light: DIVMTQSPLSLPVTPGEPASISCQASESLVHSNRNTYLHWYLQKPGQSPQLLIYKVSNRFSGVPDRFSGSGSGTDFTLKISRVEAEDVGVYYCSQNTHVPPTFGQGTKVEIERTVAAPSVFIFPPSDEQLKSGTASVVCLLNNFYPREAKVQWKVDNALQSGNSQESVTEQDSKDSTYSLSSTLTLSKADYEKHKVYACEVTHQGLSSPVTKSFNRGEC
1.54 ratio | 27.9 control=100 | 43.1 control=100 | GpH7-A5/GpH7-B3 variant G236_16H/GpL16-k0 (antibody, human IgG1, kappa, He Ab: alteration in one H chain only; also called He Ab) heavy 1: not shown heavy 2: not shown light: DIVMTQSPLSLPVTPGEPASISCQASESLVHSNRNTYLHWYLQKPGQSPQLLIYKVSNRFSGVPDRFSGSGSGTDFTLKISRVEAEDVGVYYCSQNTHVPPTFGQGTKVEIERTVAAPSVFIFPPSDEQLKSGTASVVCLLNNFYPREAKVQWKVDNALQSGNSQESVTEQDSKDSTYSLSSTLTLSKADYEKHKVYACEVTHQGLSSPVTKSFNRGEC
1.35 ratio | 96.3 control=100 | 130 control=100 | GpH7-A5/GpH7-B3 variant L234_15Y/GpL16-k0 (antibody, human IgG1, kappa, He Ab: alteration in one H chain only; also called He Ab) heavy 1: not shown heavy 2: not shown light: DIVMTQSPLSLPVTPGEPASISCQASESLVHSNRNTYLHWYLQKPGQSPQLLIYKVSNRFSGVPDRFSGSGSGTDFTLKISRVEAEDVGVYYCSQNTHVPPTFGQGTKVEIERTVAAPSVFIFPPSDEQLKSGTASVVCLLNNFYPREAKVQWKVDNALQSGNSQESVTEQDSKDSTYSLSSTLTLSKADYEKHKVYACEVTHQGLSSPVTKSFNRGEC
1.84 ratio | 6.8 control=100 | 12.5 control=100 | GpH7-A5/GpH7-B3 variant G236_12R/GpL16-k0 (antibody, human IgG1, kappa, He Ab: alteration in one H chain only; also called He Ab) heavy 1: not shown heavy 2: not shown light: DIVMTQSPLSLPVTPGEPASISCQASESLVHSNRNTYLHWYLQKPGQSPQLLIYKVSNRFSGVPDRFSGSGSGTDFTLKISRVEAEDVGVYYCSQNTHVPPTFGQGTKVEIERTVAAPSVFIFPPSDEQLKSGTASVVCLLNNFYPREAKVQWKVDNALQSGNSQESVTEQDSKDSTYSLSSTLTLSKADYEKHKVYACEVTHQGLSSPVTKSFNRGEC
1.21 ratio | 26.8 control=100 | 32.5 control=100 | GpH7-A5/GpH7-B3 variant G236_08L/GpL16-k0 (antibody, human IgG1, kappa, He Ab: alteration in one H chain only; also called He Ab) heavy 1: not shown heavy 2: not shown light: DIVMTQSPLSLPVTPGEPASISCQASESLVHSNRNTYLHWYLQKPGQSPQLLIYKVSNRFSGVPDRFSGSGSGTDFTLKISRVEAEDVGVYYCSQNTHVPPTFGQGTKVEIERTVAAPSVFIFPPSDEQLKSGTASVVCLLNNFYPREAKVQWKVDNALQSGNSQESVTEQDSKDSTYSLSSTLTLSKADYEKHKVYACEVTHQGLSSPVTKSFNRGEC
1.33 ratio | 38.5 control=100 | 51.2 control=100 | GpH7-A5/GpH7-B3 variant E269_16H/GpL16-k0 (antibody, human IgG1, kappa, He Ab: alteration in one H chain only; also called He Ab) heavy 1: not shown heavy 2: not shown light: DIVMTQSPLSLPVTPGEPASISCQASESLVHSNRNTYLHWYLQKPGQSPQLLIYKVSNRFSGVPDRFSGSGSGTDFTLKISRVEAEDVGVYYCSQNTHVPPTFGQGTKVEIERTVAAPSVFIFPPSDEQLKSGTASVVCLLNNFYPREAKVQWKVDNALQSGNSQESVTEQDSKDSTYSLSSTLTLSKADYEKHKVYACEVTHQGLSSPVTKSFNRGEC
1.27 ratio | 80.9 control=100 | 103 control=100 | GpH7-A5/GpH7-B3 variant L234_07I/GpL16-k0 (antibody, human IgG1, kappa, He Ab: alteration in one H chain only; also called He Ab) heavy 1: not shown heavy 2: not shown light: DIVMTQSPLSLPVTPGEPASISCQASESLVHSNRNTYLHWYLQKPGQSPQLLIYKVSNRFSGVPDRFSGSGSGTDFTLKISRVEAEDVGVYYCSQNTHVPPTFGQGTKVEIERTVAAPSVFIFPPSDEQLKSGTASVVCLLNNFYPREAKVQWKVDNALQSGNSQESVTEQDSKDSTYSLSSTLTLSKADYEKHKVYACEVTHQGLSSPVTKSFNRGEC
1.88 ratio | 16.2 control=100 | 30.5 control=100 | GpH7-A5/GpH7-B3 variant L234_11K/GpL16-k0 (antibody, human IgG1, kappa, He Ab: alteration in one H chain only; also called He Ab) heavy 1: not shown heavy 2: not shown light: DIVMTQSPLSLPVTPGEPASISCQASESLVHSNRNTYLHWYLQKPGQSPQLLIYKVSNRFSGVPDRFSGSGSGTDFTLKISRVEAEDVGVYYCSQNTHVPPTFGQGTKVEIERTVAAPSVFIFPPSDEQLKSGTASVVCLLNNFYPREAKVQWKVDNALQSGNSQESVTEQDSKDSTYSLSSTLTLSKADYEKHKVYACEVTHQGLSSPVTKSFNRGEC
1.95 ratio | 18.9 control=100 | 36.9 control=100 | GpH7-A5/GpH7-B3 variant L234_12R/GpL16-k0 (antibody, human IgG1, kappa, He Ab: alteration in one H chain only; also called He Ab) heavy 1: not shown heavy 2: not shown light: DIVMTQSPLSLPVTPGEPASISCQASESLVHSNRNTYLHWYLQKPGQSPQLLIYKVSNRFSGVPDRFSGSGSGTDFTLKISRVEAEDVGVYYCSQNTHVPPTFGQGTKVEIERTVAAPSVFIFPPSDEQLKSGTASVVCLLNNFYPREAKVQWKVDNALQSGNSQESVTEQDSKDSTYSLSSTLTLSKADYEKHKVYACEVTHQGLSSPVTKSFNRGEC
1.25 ratio | 73.1 control=100 | 91.4 control=100 | GpH7-A5/GpH7-B3 variant L234_03V/GpL16-k0 (antibody, human IgG1, kappa, He Ab: alteration in one H chain only; also called He Ab) heavy 1: not shown heavy 2: not shown light: DIVMTQSPLSLPVTPGEPASISCQASESLVHSNRNTYLHWYLQKPGQSPQLLIYKVSNRFSGVPDRFSGSGSGTDFTLKISRVEAEDVGVYYCSQNTHVPPTFGQGTKVEIERTVAAPSVFIFPPSDEQLKSGTASVVCLLNNFYPREAKVQWKVDNALQSGNSQESVTEQDSKDSTYSLSSTLTLSKADYEKHKVYACEVTHQGLSSPVTKSFNRGEC
1.95 ratio | 19 control=100 | 37.1 control=100 | GpH7-A5/GpH7-B3 variant G236_05P/GpL16-k0 (antibody, human IgG1, kappa, He Ab: alteration in one H chain only; also called He Ab) heavy 1: not shown heavy 2: not shown light: DIVMTQSPLSLPVTPGEPASISCQASESLVHSNRNTYLHWYLQKPGQSPQLLIYKVSNRFSGVPDRFSGSGSGTDFTLKISRVEAEDVGVYYCSQNTHVPPTFGQGTKVEIERTVAAPSVFIFPPSDEQLKSGTASVVCLLNNFYPREAKVQWKVDNALQSGNSQESVTEQDSKDSTYSLSSTLTLSKADYEKHKVYACEVTHQGLSSPVTKSFNRGEC
1.64 ratio | 35.3 control=100 | 57.7 control=100 | GpH7-A5/GpH7-B3 variant G236_03V/GpL16-k0 (antibody, human IgG1, kappa, He Ab: alteration in one H chain only; also called He Ab) heavy 1: not shown heavy 2: not shown light: DIVMTQSPLSLPVTPGEPASISCQASESLVHSNRNTYLHWYLQKPGQSPQLLIYKVSNRFSGVPDRFSGSGSGTDFTLKISRVEAEDVGVYYCSQNTHVPPTFGQGTKVEIERTVAAPSVFIFPPSDEQLKSGTASVVCLLNNFYPREAKVQWKVDNALQSGNSQESVTEQDSKDSTYSLSSTLTLSKADYEKHKVYACEVTHQGLSSPVTKSFNRGEC
1.93 ratio | 31 control=100 | 59.7 control=100 | GpH7-A5/GpH7-B3 variant G236_07I/GpL16-k0 (antibody, human IgG1, kappa, He Ab: alteration in one H chain only; also called He Ab) heavy 1: not shown heavy 2: not shown light: DIVMTQSPLSLPVTPGEPASISCQASESLVHSNRNTYLHWYLQKPGQSPQLLIYKVSNRFSGVPDRFSGSGSGTDFTLKISRVEAEDVGVYYCSQNTHVPPTFGQGTKVEIERTVAAPSVFIFPPSDEQLKSGTASVVCLLNNFYPREAKVQWKVDNALQSGNSQESVTEQDSKDSTYSLSSTLTLSKADYEKHKVYACEVTHQGLSSPVTKSFNRGEC
1.21 ratio | 72.9 control=100 | 88.1 control=100 | GpH7-A5/GpH7-B3 variant L234_05P/GpL16-k0 (antibody, human IgG1, kappa, He Ab: alteration in one H chain only; also called He Ab) heavy 1: not shown heavy 2: not shown light: DIVMTQSPLSLPVTPGEPASISCQASESLVHSNRNTYLHWYLQKPGQSPQLLIYKVSNRFSGVPDRFSGSGSGTDFTLKISRVEAEDVGVYYCSQNTHVPPTFGQGTKVEIERTVAAPSVFIFPPSDEQLKSGTASVVCLLNNFYPREAKVQWKVDNALQSGNSQESVTEQDSKDSTYSLSSTLTLSKADYEKHKVYACEVTHQGLSSPVTKSFNRGEC
2.21 ratio | 39.3 control=100 | 87 control=100 | GpH7-A5/GpH7-B3 variant G236_04F/GpL16-k0 (antibody, human IgG1, kappa, He Ab: alteration in one H chain only; also called He Ab) heavy 1: not shown heavy 2: not shown light: DIVMTQSPLSLPVTPGEPASISCQASESLVHSNRNTYLHWYLQKPGQSPQLLIYKVSNRFSGVPDRFSGSGSGTDFTLKISRVEAEDVGVYYCSQNTHVPPTFGQGTKVEIERTVAAPSVFIFPPSDEQLKSGTASVVCLLNNFYPREAKVQWKVDNALQSGNSQESVTEQDSKDSTYSLSSTLTLSKADYEKHKVYACEVTHQGLSSPVTKSFNRGEC
1.29 ratio | 44.8 control=100 | 57.8 control=100 | GpH7-A5/GpH7-B3 variant E269_18N/GpL16-k0 (antibody, human IgG1, kappa, He Ab: alteration in one H chain only; also called He Ab) heavy 1: not shown heavy 2: not shown light: DIVMTQSPLSLPVTPGEPASISCQASESLVHSNRNTYLHWYLQKPGQSPQLLIYKVSNRFSGVPDRFSGSGSGTDFTLKISRVEAEDVGVYYCSQNTHVPPTFGQGTKVEIERTVAAPSVFIFPPSDEQLKSGTASVVCLLNNFYPREAKVQWKVDNALQSGNSQESVTEQDSKDSTYSLSSTLTLSKADYEKHKVYACEVTHQGLSSPVTKSFNRGEC
1.22 ratio | 65.7 control=100 | 80.3 control=100 | GpH7-A5/GpH7-B3 variant H268_06M/GpL16-k0 (antibody, human IgG1, kappa, He Ab: alteration in one H chain only; also called He Ab) heavy 1: not shown heavy 2: not shown light: DIVMTQSPLSLPVTPGEPASISCQASESLVHSNRNTYLHWYLQKPGQSPQLLIYKVSNRFSGVPDRFSGSGSGTDFTLKISRVEAEDVGVYYCSQNTHVPPTFGQGTKVEIERTVAAPSVFIFPPSDEQLKSGTASVVCLLNNFYPREAKVQWKVDNALQSGNSQESVTEQDSKDSTYSLSSTLTLSKADYEKHKVYACEVTHQGLSSPVTKSFNRGEC

Source: patent US20180155451A1 (published 2018)
